The record followed here is patent publication US20220241314A1, “COMPOSITIONS AND METHODS FOR TREATMENT OF HEPATITIS B VIRUS INFECTION” (priority 2019, published 2022).

Data set [1] can be described thus: in vitro. As to conditions: human, HepG2-hNTCP cells (HepG2-C3A-hNTCP).
Procedure: (§3) HepG2-NTCP Cells (10A and 10C), dHepaRG (10B and 10D), and PHH (10E) were treated with increasing doses of F7 or poly-U/UC PAMP for 72 hours. Cell viability was determined concurrently by measuring ATP content, with values normalized to mock-treated cells. Graph represents the mean of triplicated samples in each of 3 independent experiments, with error bars showing standard deviation.ns=non-significant.
(§4) To determine the values of 90% of maximal Inhibitory concentration (IC90) and half-maximal Inhibitory concentration (IC50), as well as the cytotoxic concentration, CC50, of F7 and poly-U/UC, PAMP, two different cell lines were used, HepG2-hNTCP and dHepaRG cells.
(§5) Cytotoxicity assays: Cytotoxicity was evaluated from cultures of HepG2-C3A -hNTCP and dHepaRG cells using CellTiter-Glo as described (Edwards, T. C., et al. (2019). Inhibition of HBV replication by N-hydroxvisoquinolinedione and N-hydroxypyridinedinone ribonuclease H inhibitors. Antiviral research 164, 70-80). […] Cytotoxicity of each was measured with the ATP content as a measure of cell viability using the CellTiter-Glo™ reagent (Promega) per manufacturer's instructions. The plates were read using a luminescence plate reader (Berthold) and the relative luminescence unit (RLU) data generated from each well was calculated as percent signal compared to the untreated control. […]
In data set [2] the test system is IRF3. Description: Innate immune activation in primary human hepatocytes (immunoblot, RT-qPCR). The data set is classed as cell-based. Conditions: PHH, 24 and 72 hours. As for the experimental part:
(§1) FIGS. 7A-7C illustrate suppression of cccDNA in primary human hepatocytes. (7A) PHH were cultured alone or were treated with 100 ng/ml X-RNA (X100), or 50 ng/ml (P50), 100 ng/ml (P100) or 200 ng/ml (P200) poly-U/UC PAMP or were infected with SenV (control) and harvested 24 and 72 hours later. The cell lysates were analyzed by immunoblot for p-IRF3 (S386 phosphorylated, active IRF3), IRF3 (total IRF3), IFIT1, and Actin (control) using respective antibodies. (7B) PHH cultures were cultured alone or were treated with 100 ng/ml X-RNA (X100), or 100 ng/ml (P100) or 200 ng/ml (P200) poly-U/UC PAMP or were infected with SenV (control) and harvested 24 and 72 later. Cells were harvested, RNA extracted and analyzed by RT-qPCR to measure the expression levels of the indicated innate immune genes normalized to the level of GAPDH expression. Values are shown on the heat map as mean fold induction over nontreated cells from three independent experiments. (7C) PHH cultures were inoculated with HBV at moi of 200 Geq/cell. […] Three days later the cells were harvested, DNA isolated by isolated Hirt extraction, and analyzed by Southern blot using a HBV-specific probe. […]
(§2) PHH cultures were treated over a poly-U/UC PAMP dose-response and assessed innate immune activation. […]

Data set [3] deals with dHepaRG cells. The data set can be described thus: Cytotoxicity, cellular ATP content (CellTiter-Glo), dHepaRG. Conditions: 72 hours (FIG. 10D), 23.49 nM = 800 ng/ml. A general note: Cellular ATP, detected with luciferase, serves as a proxy for viable cell number.
Procedure: as §3, §4, §5
Data set [4] relates to HBV cccDNA. Description: cccDNA levels in HBV-infected primary human hepatocytes (Southern blot). As to conditions: PHH, HBV 200 Geq/cell, single treatment at 1 dpi, harvested 3 dpi. The data set is classed as cell-based, HBV (Genotype D). As for the experimental part:
as §1, §2

{ppp} = triphosphate Where only a bound is given, the exact number is not on record here.

As a reminder, the CC50 is the concentration at which the toxic effect on the cells reaches its halfway point. Higher therefore signals better tolerance by the cells. `O=C(Nc1ccc2nc(NC(=O)c3ccc4ccccc4c3)sc2c1)c1ccccc1` [F7, N-(6-benzamido-1,3-benzothiazol-2-yl)naphthalene-2-carboxamide]: in data set [1], the CC50 at 72 h was over 40 µM.

B1: poly-U/UC PAMP: ~100 nt PAMP motif from the HCV genome comprising 5′ppp and the poly U/UC region, recognized by RIG-I; formulated in liposome (nucleic acid)
chain: GGCCAUCCUGUUUUUUUCCCUUUUUUUUUUUCUUUUUUUUUUUUUUUUUUUUUUUUUUUUUUUUUUCUCCUUUUUUUUUCCUCUUUUUUUCCUUUUCUUUCCUUU
modifications: RNA, 5' {ppp}, backbone and methylation of C not given here; formulated in liposome
notes: ~100 nt PAMP motif from the HCV genome comprising 5′ppp and the poly U/UC region, recognized by RIG-I; formulated in liposome
For B1, the “innate immune gene expression (RT-qPCR)” value in data set [2] is listed as “robustly induced innate immune gene expression”. For the same molecule, in data set [2] (poly-U/UC PAMP 50-200 ng/ml, X-RNA 100 ng/ml), the “IRF3 activation (phosphoserine 386 IRF3) and IFIT1 expression” value was “induced IRF3 activation”. The CC50 in data set [3] is over 0.0235 µM. Also, the cccDNA levels result in data set [4] was “suppressed cccDNA levels in the infected PHH to levels similar to CsA treatment”.
